Experimental data taken from patent US20170137533A1 (published 2017).

Assays:
Assay in all cases: ForteBio
SC16.51 = target: SC16.51
SC16.39 = target: SC16.39
SC16.46 = target: SC16.46
Sequence of SC16.46 (Q9NYJ7 27-492): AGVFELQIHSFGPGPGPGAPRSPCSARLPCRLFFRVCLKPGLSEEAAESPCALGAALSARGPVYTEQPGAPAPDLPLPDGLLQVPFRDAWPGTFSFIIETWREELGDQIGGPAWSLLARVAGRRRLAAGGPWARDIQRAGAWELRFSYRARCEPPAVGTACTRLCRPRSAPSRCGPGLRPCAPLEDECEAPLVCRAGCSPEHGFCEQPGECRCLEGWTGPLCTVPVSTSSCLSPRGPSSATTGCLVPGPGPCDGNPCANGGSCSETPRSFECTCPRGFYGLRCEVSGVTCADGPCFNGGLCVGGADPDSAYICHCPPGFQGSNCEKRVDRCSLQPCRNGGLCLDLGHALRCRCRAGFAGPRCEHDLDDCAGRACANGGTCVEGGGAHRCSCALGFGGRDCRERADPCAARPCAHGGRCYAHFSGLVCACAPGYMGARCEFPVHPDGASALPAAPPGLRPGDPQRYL

Sequence of SC16.51 (Q9NYJ7 27-492): as above
Sequence of SC16.39 (Q9NYJ7 27-492): as above

Kd (SC16.51): 2 nM
Kd (SC16.39): 1 nM
Kd (SC16.46): 0.5 nM
B1: DLL3 (ligand)
chain: not shown
